Test results published in WO2018007923A2 (dated 2018).
Each block holds one binder with its values, some of them ahead of it.

Experiments:
[1] = molecular target: T1, pH4.0-treated TTR (human, UniProt P02766 21-147); assay: ELISA, pH4-TTR captured by anti-His
[2] = molecular target: T1, pH4.0-treated TTR; assay: summary of Table 4; ELISA on pH4-TTR
[3] = molecular target: TTR-V122I (fibrils and oligomeric aggregates) (UniProt P02766 21-147); assay: cell-based or functional assay
[4] = molecular target: T2, pH4.0-treated TTR (human, UniProt P02766 21-147); assay: ELISA, pH4-TTR captured by anti-His; remark: listed apart in the source
[5] = molecular target: T2, pH4.0-treated TTR; assay: summary of Table 4; ELISA on pH4-TTR; remark: listed apart in the source

Kd [1]: 16 nM
Kd [2]: 14.5 nM
B1: mouse monoclonal antibody 6C1 (antibody, V domains shown)
VH: EVQLVESGGGLVQPGGSLKLSCAASGFTFSNYYMSWVRQTPEKRLEWVAYISIDGNNIYHPDSVKGRFTISRDNAKNTLYLQMSSLKSEDTAMYYCARDSDYGYFDVWGTGTTVTVSS
VL: DVLMTQTPLSLPVSLGDQASISCRSSQSIVHSNGNTYLEWYLQKRGQSPKLLIYKVSKRFSGVPDRFSGSGSGTDFILKISRVEAEDLGVYYCFQGSHVPLTFGGGTKLELK
notes: also called m6C1; mis-TTR mAb 6C1

IC50 of inhibition of TTR-V122I fibrillation (ThT fluorescence) [3]: 28 µg/mL
B2: mouse monoclonal antibody 14G8 (antibody, V domains shown)
VH: EVKLVESGGGLVQPGGSLKLSCAASGFTFSSYTMSWVRQTPEKRLELVAEINNSGDTTYYPDTVKGRFTISRDNAKNTLYLQMSSLKSEDTAMYYCARHYYYGGGYGGWFFDVWGTGTTVTVSS
VL: DIVMTQAAPSVPVTPGESVSISCRSNKSLLHSNGNTYLYWFLQRPGQSPQLLIYRVSNLASGVPDRFSGSGSGTAFTLRISRVEAEDVGVYYCMQHLEYPLTFGAGTKLELKR

Kd [4]: 282 nM
Kd [5]: 257 nM
B3: mouse monoclonal antibody 9D5 (antibody, V domains shown)
VH: EVKLVESGGGLVQPGGSLKLSCAASGFTFSSYTMSWVRQTPEKRLELVAEISNSGDTTYYPDTVKGRFTFSRDNAKNTLYLQMSSLKSEDTAMYYCARHYYYGGGYGGWFFDVWGTGTTVTVSS
VL: DIVMTQAAPSVPVTPGESVSISCRSSKSLLHSNGNTYLYWFLQRPGQSPQLLIYRVSNLASGVPDRFSGSGSGTAFTLRISRVEAEDVGVYYCMQHLEYPLTFGAGTKLELK
